Measured values reported in patent US20140105889A1 (published 2014).
Positions count from the first letter of the chain named. Numbers in names are those of the source.

T1: human FcγRIIa type R (human, UniProt P12318 36-217)
T1 construct: also called FcγRIIaR; FcγRIIa(R)
T1 chain: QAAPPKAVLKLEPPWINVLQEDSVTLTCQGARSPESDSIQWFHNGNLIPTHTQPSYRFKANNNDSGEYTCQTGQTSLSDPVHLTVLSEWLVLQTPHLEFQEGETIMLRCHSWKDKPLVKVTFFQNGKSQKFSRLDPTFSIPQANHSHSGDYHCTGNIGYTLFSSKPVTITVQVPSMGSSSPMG

T2: human FcγRIIa type H (human, UniProt P12318 36-217)
T2 construct: Whole entry named for FcγRIIa allotype H131 (AAH20823.1); also called FcγRIIaH; FcγRIIa(H)
T2 sequence: T1 chain with R133H

T3: human FcγRIIb (human, UniProt P31994 43-217)
T3 construct: also called FcγIIB
T3 sequence: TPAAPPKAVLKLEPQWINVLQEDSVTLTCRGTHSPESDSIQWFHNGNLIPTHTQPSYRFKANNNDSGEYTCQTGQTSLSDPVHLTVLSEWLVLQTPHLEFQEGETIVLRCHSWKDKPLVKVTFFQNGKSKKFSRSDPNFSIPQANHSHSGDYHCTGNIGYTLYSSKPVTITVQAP

B1: IL6R-B3/IL6R-L (antibody, human IgG1)
heavy: not shown
light: DIQMTQSPSSLSASVGDRVTITCRASQDISSYLNWYQQKPGKAPKLLIYYTSRLHSGVPSRFSGSGSGTDFTFTISSLQPEDIATYYCQQGNTLPYTFGQGTKVEIK
notes: IL6R-G1d with K439E (EU numbering); copies: 2 + 2
B2: IL6R-2B002/IL6R-L (antibody, human IgG1)
heavy: QVQLQESGPGLVKPSETLSLTCAVSGHSISHDHAWSWVRQPPGEGLEWIGFISYSGITNYNPSLQGRVTISRDNSKNTLYLQMNSLRAEDTAVYYCARSLARTTAMDYWGEGTLVTVSSASTKGPSVFPLAPSSKSTSGGTAALGCLVKDYFPEPVTVSWNSGALTSGVHTFPAVLQSSGLYSLSSVVTVPSSSLGTQTYICNVNHKPSNTKVDKKVEPKSCDKTHTCPPCPAPDLLGGDSVFLFPPKPKDTLMISRTPEVTCVVVDVSHEDPEVKFNWYVDGVEVHNAKTKPREEQYNSTYRVVSVLTVLHQDWLNGKEYKCKVSNKALPAPIEKTISKAKGQPREPQVYTLPPSRDELTKNQVSLTCLVKGFYPSDIAVEWESNGQPENNYKTTPPVLDSDGSFFLYSKLTVDKSRWQQGNVFSCSVMHEALHNHYTQESLSLSP
light: B1 light
notes: copies: 2 + 2
B3: IL6R-2B128/IL6R-L (antibody, human IgG1)
heavy: B2 heavy with D235E, Y298D
light: B1 light
notes: copies: 2 + 2
B4: IL6R-2B169/IL6R-L (antibody, human IgG1)
heavy: B2 heavy with D235E, V325I
light: B1 light
notes: copies: 2 + 2
B5: IL6R-2B171/IL6R-L (antibody, human IgG1)
heavy: B2 heavy with D235E, V325L
light: B1 light
notes: copies: 2 + 2
B6: IL6R-2B172/IL6R-L (antibody, human IgG1)
heavy: B2 heavy with D235E, V325M
light: B1 light
notes: copies: 2 + 2
B7: IL6R-BP100/IL6R-L (antibody, human IgG1)
heavy: B2 heavy with D235E, S269A
light: B1 light
notes: copies: 2 + 2
B8: IL6R-BP102/IL6R-L (antibody, human IgG1)
heavy: B2 heavy with D235E, S269Q
light: B1 light
notes: copies: 2 + 2
B9: IL6R-BP103/IL6R-L (antibody, human IgG1)
heavy: B2 heavy with D235E, S269V
light: B1 light
notes: copies: 2 + 2
B10: IL6R-BP107/IL6R-L (antibody, human IgG1)
heavy: B2 heavy with D235E, H270E
light: B1 light
notes: copies: 2 + 2
B11: IL6R-BP110/IL6R-L (antibody, human IgG1)
heavy: B2 heavy with D235E, H270N
light: B1 light
notes: copies: 2 + 2

Target: T4, human FcγRIa (human, UniProt P12314 16-292, limits assumed)
T4 construct: also called CD64
T4 sequence (P12314 16-292 limits assumed): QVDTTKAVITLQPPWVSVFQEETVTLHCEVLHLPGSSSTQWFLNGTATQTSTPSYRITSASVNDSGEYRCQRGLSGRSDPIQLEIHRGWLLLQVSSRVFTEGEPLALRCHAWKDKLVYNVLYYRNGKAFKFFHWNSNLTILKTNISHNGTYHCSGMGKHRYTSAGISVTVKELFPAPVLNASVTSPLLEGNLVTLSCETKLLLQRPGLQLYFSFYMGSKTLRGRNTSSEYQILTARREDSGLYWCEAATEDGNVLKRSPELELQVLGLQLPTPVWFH
Test: SPR (Biacore), FcγR over captured antibody; amount bound relative to IL6R-BF648/IL6R-L x100

Binder | relative binding
B1 | 145 relative value (IL6R-BF648/IL6R-L = 100)
B2 | 118 relative value (IL6R-BF648/IL6R-L = 100)
B3 | 95 relative value (IL6R-BF648/IL6R-L = 100)
B4 | 73 relative value (IL6R-BF648/IL6R-L = 100)
B5 | 116 relative value (IL6R-BF648/IL6R-L = 100)
B6 | 140 relative value (IL6R-BF648/IL6R-L = 100)
B7 | 121 relative value (IL6R-BF648/IL6R-L = 100)
B8 | 104 relative value (IL6R-BF648/IL6R-L = 100)
B9 | 56 relative value (IL6R-BF648/IL6R-L = 100)
B10 | 123 relative value (IL6R-BF648/IL6R-L = 100)
B11 | 105 relative value (IL6R-BF648/IL6R-L = 100)

Target: T1, human FcγRIIa type R
Test: as above

Binder | relative binding
B1 | 625 relative value (IL6R-BF648/IL6R-L = 100)
B2 | 103 relative value (IL6R-BF648/IL6R-L = 100)
B3 | 87 relative value (IL6R-BF648/IL6R-L = 100)
B5 | 117 relative value (IL6R-BF648/IL6R-L = 100)
B6 | 244 relative value (IL6R-BF648/IL6R-L = 100)
B7 | 197 relative value (IL6R-BF648/IL6R-L = 100)
B8 | 165 relative value (IL6R-BF648/IL6R-L = 100)
B9 | 163 relative value (IL6R-BF648/IL6R-L = 100)
B10 | 147 relative value (IL6R-BF648/IL6R-L = 100)
B11 | 128 relative value (IL6R-BF648/IL6R-L = 100)

Target: T5, human FcγRIIIa type V (human, UniProt P08637 17-208, limits assumed)
T5 construct: also called FcγRIIIaV; FcγRIIIa(V)
T5 sequence (P08637 other isoform, or with tags, fused parts or gaps limits assumed): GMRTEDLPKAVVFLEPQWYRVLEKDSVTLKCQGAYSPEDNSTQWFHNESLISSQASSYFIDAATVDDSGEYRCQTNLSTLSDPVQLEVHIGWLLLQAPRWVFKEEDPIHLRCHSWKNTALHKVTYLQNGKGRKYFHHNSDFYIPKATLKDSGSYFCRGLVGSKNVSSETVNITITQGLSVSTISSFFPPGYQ
Test: as above

Binder | relative binding
B1 | 3260 relative value (IL6R-BF648/IL6R-L = 100)
B2 | 147 relative value (IL6R-BF648/IL6R-L = 100)
B3 | 96 relative value (IL6R-BF648/IL6R-L = 100)
B4 | 94 relative value (IL6R-BF648/IL6R-L = 100)
B5 | 122 relative value (IL6R-BF648/IL6R-L = 100)
B6 | 144 relative value (IL6R-BF648/IL6R-L = 100)
B7 | 138 relative value (IL6R-BF648/IL6R-L = 100)
B8 | 86 relative value (IL6R-BF648/IL6R-L = 100)
B9 | 77 relative value (IL6R-BF648/IL6R-L = 100)
B10 | 129 relative value (IL6R-BF648/IL6R-L = 100)
B11 | 127 relative value (IL6R-BF648/IL6R-L = 100)

Target: T2, human FcγRIIa type H
Test: as above

Binder | relative binding
B1 | 1600 relative value (IL6R-BF648/IL6R-L = 100)
B2 | 147 relative value (IL6R-BF648/IL6R-L = 100)
B3 | 37 relative value (IL6R-BF648/IL6R-L = 100)
B4 | 83 relative value (IL6R-BF648/IL6R-L = 100)
B5 | 115 relative value (IL6R-BF648/IL6R-L = 100)
B6 | 179 relative value (IL6R-BF648/IL6R-L = 100)
B7 | 128 relative value (IL6R-BF648/IL6R-L = 100)
B8 | 66 relative value (IL6R-BF648/IL6R-L = 100)
B9 | 69 relative value (IL6R-BF648/IL6R-L = 100)
B11 | 127 relative value (IL6R-BF648/IL6R-L = 100)

Target: T3, human FcγRIIb
Test: as above

Binder | relative binding
B1 | 58 relative value (IL6R-BF648/IL6R-L = 100)
B3 | 103 relative value (IL6R-BF648/IL6R-L = 100)
B4 | 104 relative value (IL6R-BF648/IL6R-L = 100)
B5 | 113 relative value (IL6R-BF648/IL6R-L = 100)
B6 | 132 relative value (IL6R-BF648/IL6R-L = 100)
B7 | 110 relative value (IL6R-BF648/IL6R-L = 100)
B8 | 106 relative value (IL6R-BF648/IL6R-L = 100)
B9 | 107 relative value (IL6R-BF648/IL6R-L = 100)
B10 | 118 relative value (IL6R-BF648/IL6R-L = 100)
B11 | 101 relative value (IL6R-BF648/IL6R-L = 100)
